Data reported in patent publication US20100150950A1, “HUMAN ANTIBODIES THAT BIND CD70 AND USES THEREOF” (Medarex, Inc., priority 2006, published 2010).

B1: anti-CD70 human monoclonal antibody 69A7 (antibody, V domains shown)
VH: QVQLQESGPGLVKPSETLSLTCTVSGGSVSSDYYYWSWIRQPPGKGLEWLGYIYYSGSTNYNPSLKSRVTISVDTSKNQFSLKLRSVTTADTAVYYCARGDGDYGGNCFDYWGQGTLVTVSS
VL: EIVLTQSPATLSLSPGERATLSCRASQSVSSYLAWYQQKPGQAPRLLIFDASNRATGIPARFSGSGSGTDFTLTISSLEPEDFAVYYCQQRSNWPLTFGGGTKVEIK
notes: Human IgG from hybridoma; also called HuMAb 69A7; FITC-conjugated 69A7
B2: 2H5 NF: 2H5 HuMAb lacking fucosyl residues, expressed in CHO cell line Ms704-PF (antibody, V domains shown)
VH: QVQLVESGGGVVQPGRSLRLSCAASGFTFSSYIMHWVRQAPGKGLEWVAVISYDGRNKYYADSVKGRFTISRDNSKNTLYLQMNSLRAEDTAVYYCARDTDGYDFDYWGQGTLVTVSS
VL: EIVLTQSPATLSLSPGERATLSCRASQSVSSYLAWYQQKPGQAPRLLIYDASNRATGIPARFSGSGSGTDFTLTISSLEPEDFAVYYCQQRTNWPLTFGGGTKVEIK

Assays:
[1] = tested on: 786-O human renal cancer cell line; test: Internalization by immunofluorescence staining; format: cell-based
Procedure: The 786-O human renal cancer cell line was used to test the internalization of HuMab anti-CD70 antibodies 69A7 and 2H5 upon binding to the cells using immuno-fluorescence staining. 786-O cells (1×10^4 cells per 100 μl per well in a 96-well plate) were harvested from a tissue culture flask by treatment with 0.25% Trypsin/EDTA, then incubated with each of the HuMab anti-CD70 antibodies at 5 μg/ml in FACS buffer (PBS+5% FBS, media) for 30 minutes on ice. A human IgG1 isotype control was used as a negative control. Following 2 washes with media, the cells were re-suspended in the media (100 μl per well) and then incubated with goat anti-human secondary antibody conjugated with PE (Jackson ImmunoResearch Lab) at 1:100 dilution on ice for 30 minutes. The cells were either immediately imaged for morphology and immunofluorescence intensity under a fluorescent microscope (Nikon) at 0 min or incubated at 37° C. for various times. […] Similar results were also obtained with FITC-direct conjugated HuMab anti-CD70 antibodies in the assays. […] At the 120 min timepoint, membrane fluorescence was not apparent, but instead appeared to be present in intracellular compartments.

MEC-1 cells = test: ADCC fluorescence cytotoxicity assay, MEC-1; format: cell-based, human; settings: target to effector ratio 1:50
Procedure: In this example, a defucosylated and non-defucosylated anti-CD70 monoclonal antibody was tested for the ability to kill CD70+cells in the presence of effector cells via antibody dependent cellular cytotoxicity (ADCC) in a fluorescence cytotoxicity assay
Human Anti-CD70 monoclonal antibody 2H5 was defucosylated as described above. Human effector cells were prepared from whole blood as follows. Human peripheral blood mononuclear cells were purified from heparinized whole blood by standard Ficoll-paque separation. The cells were resuspended in RPMI1640 media containing 10% FBS (culture media) and 200 U/ml of human IL-2 and incubated overnight at 37° C. The following day, the cells were collected and washed once in culture media and resuspended at 2×10^7 cells/ml. […]
The CD70+ cell lines ARH-77 (human B lymphoblast leukemia; ATCC Accession No. CRL-1621), MEC-1 (human chronic B cell leukemia; DSMZ Accession No. ACC 497), SU-DHL-6 (human B cell lymphoma, DSMZ Accession No. Acc572), IM-9 (human B lymphoblast; ATCC Accession No. CCL-159) and HuT 78 (human cutaneous lymphocyte lymphoma; ATCC Accession No. TIB-161), were tested for antibody specific ADCC to the defucosylated and non-defucosylated human anti-CD70 monoclonal antibody 2H5 using the Delfia fluorescence emission analysis as follows. […]

Molecule	membrane fluorescence intensity ([1]; 30 min incubation at 37° C.)	membrane fluorescence ([1]; 120 min timepoint)	internalization upon binding ([1]; antibody 5 μg/ml, 37° C.)	ADCC, % specific lysis of MEC-1 (MEC-1 cells)
B1	significantly decreased	not apparent	specifically internalized	
B2				increased percentage of specific lysis
